Assay results as given in the RNAGym collection of RNA variant scans (doi:10.1021/acssynbio.7b00057).

B1: Pistol ribozyme (parent)
chain: GGGUCGUUGUUCCAUAAUCGCGUGGAUAUGGCACGCAAGUUUCUACCGGGCACCGUAAAUGUCCGACUGGAGCCGUUCGGGCGGCUAUAAACAGACCUCAGGCCCGAAGCGUGGCGGCACCUGCCGCCGGUGGUAAAAAAGAUCGGAAGAGCACACGUCU

Variants of: B1
Assay: aptazyme ON/OFF ratio, guanine; higher = stronger switching; co-transcriptional cleavage with and without guanine

Row | Variant | aptazyme ON/OFF ratio
1 | GGGUCGUUAUCUAAUAAUCGCGUGGAUAUGGCACGCAAGUUUCUACCGGGCACCGUAAAUGUCCGACUGGAGCCGUUCGGGCGGCUAUAAACAGACCUCAGGCCCGAAGCGUGGCGGCACCUGCCGCCGGUGGUAAAAAAGAUCGGAAGAGCACACGUCU [G9A U11C C12U C13A] | 1.41
2 | GGGUCGUUAUCUUAUAAUCGCGUGGAUAUGGCACGCAAGUUUCUACCGGGCACCGUAAAUGUCCGACUGGAGCCGUUCGGGCGGCUAUAAACAGACCUCAGGCCCGAAGCGUGGCGGCACCUGCCGCCGGUGGUAAAAAAGAUCGGAAGAGCACACGUCU [G9A U11C C12U C13U] | 1.55
3 | GGGUCGUUAUCUGAUAAUCGCGUGGAUAUGGCACGCAAGUUUCUACCGGGCACCGUAAAUGUCCGACUGGAGCCGUUCGGGCGGCUAUAAACAGACCUCAGGCCCGAAGCGUGGCGGCACCUGCCGCCGGUGGUAAAAAAGAUCGGAAGAGCACACGUCU [G9A U11C C12U C13G] | 1.38
4 | GGGUCGUUAUCGAAUAAUCGCGUGGAUAUGGCACGCAAGUUUCUACCGGGCACCGUAAAUGUCCGACUGGAGCCGUUCGGGCGGCUAUAAACAGACCUCAGGCCCGAAGCGUGGCGGCACCUGCCGCCGGUGGUAAAAAAGAUCGGAAGAGCACACGUCU [G9A U11C C12G C13A] | 1.28
5 | GGGUCGUUAUCGGAUAAUCGCGUGGAUAUGGCACGCAAGUUUCUACCGGGCACCGUAAAUGUCCGACUGGAGCCGUUCGGGCGGCUAUAAACAGACCUCAGGCCCGAAGCGUGGCGGCACCUGCCGCCGGUGGUAAAAAAGAUCGGAAGAGCACACGUCU [G9A U11C C12G C13G] | 1.15
6 | GGGUCGUUAUCGUAUAAUCGCGUGGAUAUGGCACGCAAGUUUCUACCGGGCACCGUAAAUGUCCGACUGGAGCCGUUCGGGCGGCUAUAAACAGACCUCAGGCCCGAAGCGUGGCGGCACCUGCCGCCGGUGGUAAAAAAGAUCGGAAGAGCACACGUCU [G9A U11C C12G C13U] | 1.33
7 | GGGUCGUUAUGACAUAAUCGCGUGGAUAUGGCACGCAAGUUUCUACCGGGCACCGUAAAUGUCCGACUGGAGCCGUUCGGGCGGCUAUAAACAGACCUCAGGCCCGAAGCGUGGCGGCACCUGCCGCCGGUGGUAAAAAAGAUCGGAAGAGCACACGUCU [G9A U11G C12A] | 1.1
8 | GGGUCGUUAUGGCAUAAUCGCGUGGAUAUGGCACGCAAGUUUCUACCGGGCACCGUAAAUGUCCGACUGGAGCCGUUCGGGCGGCUAUAAACAGACCUCAGGCCCGAAGCGUGGCGGCACCUGCCGCCGGUGGUAAAAAAGAUCGGAAGAGCACACGUCU [G9A U11G C12G] | 1.3
9 | GGGUCGUUAUGUCAUAAUCGCGUGGAUAUGGCACGCAAGUUUCUACCGGGCACCGUAAAUGUCCGACUGGAGCCGUUCGGGCGGCUAUAAACAGACCUCAGGCCCGAAGCGUGGCGGCACCUGCCGCCGGUGGUAAAAAAGAUCGGAAGAGCACACGUCU [G9A U11G C12U] | 2.06
10 | GGGUCGUUAUCAGAUAAUCGCGUGGAUAUGGCACGCAAGUUUCUACCGGGCACCGUAAAUGUCCGACUGGAGCCGUUCGGGCGGCUAUAAACAGACCUCAGGCCCGAAGCGUGGCGGCACCUGCCGCCGGUGGUAAAAAAGAUCGGAAGAGCACACGUCU [G9A U11C C12A C13G] | 1.35
11 | GGGUCGUUAUCAAAUAAUCGCGUGGAUAUGGCACGCAAGUUUCUACCGGGCACCGUAAAUGUCCGACUGGAGCCGUUCGGGCGGCUAUAAACAGACCUCAGGCCCGAAGCGUGGCGGCACCUGCCGCCGGUGGUAAAAAAGAUCGGAAGAGCACACGUCU [G9A U11C C12A C13A] | 1.06
12 | GGGUCGUUAUCAUAUAAUCGCGUGGAUAUGGCACGCAAGUUUCUACCGGGCACCGUAAAUGUCCGACUGGAGCCGUUCGGGCGGCUAUAAACAGACCUCAGGCCCGAAGCGUGGCGGCACCUGCCGCCGGUGGUAAAAAAGAUCGGAAGAGCACACGUCU [G9A U11C C12A C13U] | 1.23
13 | GGGUCGUUAUGGGAUAAUCGCGUGGAUAUGGCACGCAAGUUUCUACCGGGCACCGUAAAUGUCCGACUGGAGCCGUUCGGGCGGCUAUAAACAGACCUCAGGCCCGAAGCGUGGCGGCACCUGCCGCCGGUGGUAAAAAAGAUCGGAAGAGCACACGUCU [G9A U11G C12G C13G] | 1.3
14 | GGGUCGUUAUGGAAUAAUCGCGUGGAUAUGGCACGCAAGUUUCUACCGGGCACCGUAAAUGUCCGACUGGAGCCGUUCGGGCGGCUAUAAACAGACCUCAGGCCCGAAGCGUGGCGGCACCUGCCGCCGGUGGUAAAAAAGAUCGGAAGAGCACACGUCU [G9A U11G C12G C13A] | 1.18
15 | GGGUCGUUAUGGUAUAAUCGCGUGGAUAUGGCACGCAAGUUUCUACCGGGCACCGUAAAUGUCCGACUGGAGCCGUUCGGGCGGCUAUAAACAGACCUCAGGCCCGAAGCGUGGCGGCACCUGCCGCCGGUGGUAAAAAAGAUCGGAAGAGCACACGUCU [G9A U11G C12G C13U] | 1.15
16 | GGGUCGUUAUCCAAUAAUCGCGUGGAUAUGGCACGCAAGUUUCUACCGGGCACCGUAAAUGUCCGACUGGAGCCGUUCGGGCGGCUAUAAACAGACCUCAGGCCCGAAGCGUGGCGGCACCUGCCGCCGGUGGUAAAAAAGAUCGGAAGAGCACACGUCU [G9A U11C C13A] | 1.03
17 | GGGUCGUUAUCCUAUAAUCGCGUGGAUAUGGCACGCAAGUUUCUACCGGGCACCGUAAAUGUCCGACUGGAGCCGUUCGGGCGGCUAUAAACAGACCUCAGGCCCGAAGCGUGGCGGCACCUGCCGCCGGUGGUAAAAAAGAUCGGAAGAGCACACGUCU [G9A U11C C13U] | 1.11
18 | GGGUCGUUAUCCGAUAAUCGCGUGGAUAUGGCACGCAAGUUUCUACCGGGCACCGUAAAUGUCCGACUGGAGCCGUUCGGGCGGCUAUAAACAGACCUCAGGCCCGAAGCGUGGCGGCACCUGCCGCCGGUGGUAAAAAAGAUCGGAAGAGCACACGUCU [G9A U11C C13G] | 1.11

Row | Variant | aptazyme ON/OFF ratio
19 | GGGUCGUUAUACGAUAAUCGCGUGGAUAUGGCACGCAAGUUUCUACCGGGCACCGUAAAUGUCCGACUGGAGCCGUUCGGGCGGCUAUAAACAGACCUCAGGCCCGAAGCGUGGCGGCACCUGCCGCCGGUGGUAAAAAAGAUCGGAAGAGCACACGUCU [G9A U11A C13G] | 1.1
20 | GGGUCGUUAUACAAUAAUCGCGUGGAUAUGGCACGCAAGUUUCUACCGGGCACCGUAAAUGUCCGACUGGAGCCGUUCGGGCGGCUAUAAACAGACCUCAGGCCCGAAGCGUGGCGGCACCUGCCGCCGGUGGUAAAAAAGAUCGGAAGAGCACACGUCU [G9A U11A C13A] | 1.23
21 | GGGUCGUUAUACUAUAAUCGCGUGGAUAUGGCACGCAAGUUUCUACCGGGCACCGUAAAUGUCCGACUGGAGCCGUUCGGGCGGCUAUAAACAGACCUCAGGCCCGAAGCGUGGCGGCACCUGCCGCCGGUGGUAAAAAAGAUCGGAAGAGCACACGUCU [G9A U11A C13U] | 1.34
22 | GGGUCGUUAUGCGAUAAUCGCGUGGAUAUGGCACGCAAGUUUCUACCGGGCACCGUAAAUGUCCGACUGGAGCCGUUCGGGCGGCUAUAAACAGACCUCAGGCCCGAAGCGUGGCGGCACCUGCCGCCGGUGGUAAAAAAGAUCGGAAGAGCACACGUCU [G9A U11G C13G] | 1.1
23 | GGGUCGUUAUGCUAUAAUCGCGUGGAUAUGGCACGCAAGUUUCUACCGGGCACCGUAAAUGUCCGACUGGAGCCGUUCGGGCGGCUAUAAACAGACCUCAGGCCCGAAGCGUGGCGGCACCUGCCGCCGGUGGUAAAAAAGAUCGGAAGAGCACACGUCU [G9A U11G C13U] | 1.44
24 | GGGUCGUUAUGCAAUAAUCGCGUGGAUAUGGCACGCAAGUUUCUACCGGGCACCGUAAAUGUCCGACUGGAGCCGUUCGGGCGGCUAUAAACAGACCUCAGGCCCGAAGCGUGGCGGCACCUGCCGCCGGUGGUAAAAAAGAUCGGAAGAGCACACGUCU [G9A U11G C13A] | 1.37
25 | GGGUCGUUCUUCCAUAAUCGCGUGGAUAUGGCACGCAAGUUUCUACCGGGCACCGUAAAUGUCCGACUGGAGCCGUUCGGGCGGCUAUAAACAGACCUCAGGCCCGAAGCGUGGCGGCACCUGCCGCCGGUGGUAAAAAAGAUCGGAAGAGCACACGUCU [G9C] | 1.06
26 | GGGUCGUUAUCACAUAAUCGCGUGGAUAUGGCACGCAAGUUUCUACCGGGCACCGUAAAUGUCCGACUGGAGCCGUUCGGGCGGCUAUAAACAGACCUCAGGCCCGAAGCGUGGCGGCACCUGCCGCCGGUGGUAAAAAAGAUCGGAAGAGCACACGUCU [G9A U11C C12A] | 1.38
27 | GGGUCGUUAUCUCAUAAUCGCGUGGAUAUGGCACGCAAGUUUCUACCGGGCACCGUAAAUGUCCGACUGGAGCCGUUCGGGCGGCUAUAAACAGACCUCAGGCCCGAAGCGUGGCGGCACCUGCCGCCGGUGGUAAAAAAGAUCGGAAGAGCACACGUCU [G9A U11C C12U] | 1.35
28 | GGGUCGUUAUCGCAUAAUCGCGUGGAUAUGGCACGCAAGUUUCUACCGGGCACCGUAAAUGUCCGACUGGAGCCGUUCGGGCGGCUAUAAACAGACCUCAGGCCCGAAGCGUGGCGGCACCUGCCGCCGGUGGUAAAAAAGAUCGGAAGAGCACACGUCU [G9A U11C C12G] | 1.45
29 | GGGUCGUUAUGUAAUAAUCGCGUGGAUAUGGCACGCAAGUUUCUACCGGGCACCGUAAAUGUCCGACUGGAGCCGUUCGGGCGGCUAUAAACAGACCUCAGGCCCGAAGCGUGGCGGCACCUGCCGCCGGUGGUAAAAAAGAUCGGAAGAGCACACGUCU [G9A U11G C12U C13A] | 1.35
30 | GGGUCGUUAUGUUAUAAUCGCGUGGAUAUGGCACGCAAGUUUCUACCGGGCACCGUAAAUGUCCGACUGGAGCCGUUCGGGCGGCUAUAAACAGACCUCAGGCCCGAAGCGUGGCGGCACCUGCCGCCGGUGGUAAAAAAGAUCGGAAGAGCACACGUCU [G9A U11G C12U C13U] | 1.21
31 | GGGUCGUUAUGUGAUAAUCGCGUGGAUAUGGCACGCAAGUUUCUACCGGGCACCGUAAAUGUCCGACUGGAGCCGUUCGGGCGGCUAUAAACAGACCUCAGGCCCGAAGCGUGGCGGCACCUGCCGCCGGUGGUAAAAAAGAUCGGAAGAGCACACGUCU [G9A U11G C12U C13G] | 1.42
32 | GGGUCGUUAUGAGAUAAUCGCGUGGAUAUGGCACGCAAGUUUCUACCGGGCACCGUAAAUGUCCGACUGGAGCCGUUCGGGCGGCUAUAAACAGACCUCAGGCCCGAAGCGUGGCGGCACCUGCCGCCGGUGGUAAAAAAGAUCGGAAGAGCACACGUCU [G9A U11G C12A C13G] | 1.31
33 | GGGUCGUUAUGAAAUAAUCGCGUGGAUAUGGCACGCAAGUUUCUACCGGGCACCGUAAAUGUCCGACUGGAGCCGUUCGGGCGGCUAUAAACAGACCUCAGGCCCGAAGCGUGGCGGCACCUGCCGCCGGUGGUAAAAAAGAUCGGAAGAGCACACGUCU [G9A U11G C12A C13A] | 1.18
34 | GGGUCGUUAUGAUAUAAUCGCGUGGAUAUGGCACGCAAGUUUCUACCGGGCACCGUAAAUGUCCGACUGGAGCCGUUCGGGCGGCUAUAAACAGACCUCAGGCCCGAAGCGUGGCGGCACCUGCCGCCGGUGGUAAAAAAGAUCGGAAGAGCACACGUCU [G9A U11G C12A C13U] | 1.32
35 | GGGUCGUUAUCCCAUAAUCGCGUGGAUAUGGCACGCAAGUUUCUACCGGGCACCGUAAAUGUCCGACUGGAGCCGUUCGGGCGGCUAUAAACAGACCUCAGGCCCGAAGCGUGGCGGCACCUGCCGCCGGUGGUAAAAAAGAUCGGAAGAGCACACGUCU [G9A U11C] | 1.12
36 | GGGUCGUUAUGCCAUAAUCGCGUGGAUAUGGCACGCAAGUUUCUACCGGGCACCGUAAAUGUCCGACUGGAGCCGUUCGGGCGGCUAUAAACAGACCUCAGGCCCGAAGCGUGGCGGCACCUGCCGCCGGUGGUAAAAAAGAUCGGAAGAGCACACGUCU [G9A U11G] | 2.2
